The results in this text go back to article PMC9482650, “Quantitative fragmentomics allow affinity mapping of interactomes” (Nature Communications, 2022).

Holding throughout (assay): holdup assay
What all share (parameters): key: below the threshold = too weak to quantify, mostly under pKd 3.1 to 4

The target in assay [1] is TJP1_3, Q07157. To be noted: plain residues with an end cap or a label only (N-terminal biotin on a linker: ado-ado).
In assay [2] the target is DLG1_3, Q12959. The following applies: plain residues with an end cap or a label only (N-terminal biotin on a linker: ado-ado).
For assay [3], the target named is TJP2_1, Q9UDY2. To be noted: plain residues with an end cap or a label only (N-terminal biotin on a linker: ado-ado).
Assay [4] has as its target NHERF4_1, Q86UT5-2. The following applies: plain residues with an end cap or a label only (N-terminal biotin on a linker: ado-ado).
In assay [5] the target is DLG2_2, Q15700.
Assay [6] concerns the target T1, GRIP1_5, Q9Y3R0.
T1 sequence (Q9Y3R0 568-668, limits assumed, looked up): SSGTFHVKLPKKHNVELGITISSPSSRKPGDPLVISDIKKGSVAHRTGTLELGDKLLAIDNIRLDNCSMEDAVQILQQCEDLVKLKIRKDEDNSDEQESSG
To be noted: plain residues with an end cap or a label only (N-terminal biotin on a linker: ado-ado).

Assay [7] has as its target GORASP2, Q9H8Y8. The following applies: plain residues with an end cap or a label only (N-terminal biotin on a linker: ado-ado).
Assay [8] concerns the target T2, LIN7B, Q9HAP6.
T2 sequence (Q9HAP6 88-185, limits assumed, looked up): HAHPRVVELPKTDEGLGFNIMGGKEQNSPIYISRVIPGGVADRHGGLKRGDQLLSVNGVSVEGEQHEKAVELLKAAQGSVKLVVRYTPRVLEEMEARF
The following applies: plain residues with an end cap or a label only (N-terminal biotin on a linker: ado-ado).

For assay [9], the target named is LNX1_1, Q8TBB1.
Assay [10] has as its target T3, ARHGAP21, Q5T5U3.
T3 sequence (Q5T5U3 45-169, limits assumed, looked up): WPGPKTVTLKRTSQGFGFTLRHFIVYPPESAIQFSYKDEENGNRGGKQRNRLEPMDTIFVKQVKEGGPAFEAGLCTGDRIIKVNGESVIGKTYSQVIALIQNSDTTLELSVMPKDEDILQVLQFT
The following applies: plain residues with an end cap or a label only (N-terminal biotin on a linker: ado-ado).

Assay [11] addresses IL16_3, Q14005. To be noted: plain residues with an end cap or a label only (N-terminal biotin on a linker: ado-ado).
Assay [12] concerns the target T4, MPDZ_12, O75970.
T4 sequence (O75970 1857-1958, limits assumed, looked up): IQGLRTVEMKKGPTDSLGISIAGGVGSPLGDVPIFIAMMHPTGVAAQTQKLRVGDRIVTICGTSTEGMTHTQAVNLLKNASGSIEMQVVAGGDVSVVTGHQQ
The following applies: plain residues with an end cap or a label only (N-terminal biotin on a linker: ado-ado).

Assay [13] has as its target DLG2_3, Q15700. To be noted: plain residues with an end cap or a label only (N-terminal biotin on a linker: ado-ado).
Assay [14] deals with T5, MPDZ_10, O75970.
T5 sequence (O75970 1624-1722, limits assumed, looked up): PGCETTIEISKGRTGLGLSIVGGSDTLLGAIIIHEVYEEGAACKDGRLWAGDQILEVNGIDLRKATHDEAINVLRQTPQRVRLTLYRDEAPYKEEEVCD
To be noted: plain residues with an end cap or a label only (N-terminal biotin on a linker: ado-ado).

For assay [15], the target named is DLG4_2, P78352. To be noted: plain residues with an end cap or a label only (N-terminal biotin on a linker: ado-ado).
Assay [16] concerns the target FRMPD2_1, Q68DX3. To be noted: plain residues with an end cap or a label only (N-terminal biotin on a linker: ado-ado).
The target in assay [17] is HTRA1, Q92743.
Assay [18] concerns the target T6, SHANK1, Q9Y566.
T6 sequence (Q9Y566 658-767, limits assumed, looked up): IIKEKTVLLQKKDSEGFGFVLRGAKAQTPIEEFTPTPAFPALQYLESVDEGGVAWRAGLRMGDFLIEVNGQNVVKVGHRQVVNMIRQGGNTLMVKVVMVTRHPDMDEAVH
The following applies: plain residues with an end cap or a label only (N-terminal biotin on a linker: ado-ado).

The target of assay [19] is T7, DLG3_1, Q92796.
T7 sequence (Q92796 125-227, limits assumed, looked up): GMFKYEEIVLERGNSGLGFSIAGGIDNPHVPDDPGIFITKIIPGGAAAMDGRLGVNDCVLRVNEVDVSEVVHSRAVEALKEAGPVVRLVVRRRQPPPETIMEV
To be noted: plain residues with an end cap or a label only (N-terminal biotin on a linker: ado-ado).

The target of assay [20] is APBA3_1, O96018. The following applies: plain residues with an end cap or a label only.
For assay [21], the target named is T8, DFNB31_3, Q9P202.
T8 sequence (Q9P202 811-907, limits assumed, looked up): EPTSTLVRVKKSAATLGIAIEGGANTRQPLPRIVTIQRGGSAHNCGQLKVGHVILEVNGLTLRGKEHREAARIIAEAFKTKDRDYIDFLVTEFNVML
The following applies: plain residues with an end cap or a label only (N-terminal biotin on a linker: ado-ado).

The target in assay [22] is T9, TIAM2, Q8IVF5.
T9 sequence (Q8IVF5 885-986, limits assumed, looked up): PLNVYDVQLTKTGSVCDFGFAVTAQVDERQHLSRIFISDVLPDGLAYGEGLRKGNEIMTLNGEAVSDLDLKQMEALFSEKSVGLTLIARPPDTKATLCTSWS

Assay [23] has as its target T10, HTRA3, P83110.
T10 sequence (P83110 354-453, limits assumed, looked up): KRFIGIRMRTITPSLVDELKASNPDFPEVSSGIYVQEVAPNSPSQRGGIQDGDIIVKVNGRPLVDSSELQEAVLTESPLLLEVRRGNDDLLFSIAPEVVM
The following applies: plain residues with an end cap or a label only (N-terminal biotin on a linker: ado-ado).

In assay [24] the target is GRID2IP_2, A4D2P6.
The target of assay [25] is T11, MPP6, Q9NZW5.
T11 sequence (Q9NZW5 125-219, limits assumed, looked up): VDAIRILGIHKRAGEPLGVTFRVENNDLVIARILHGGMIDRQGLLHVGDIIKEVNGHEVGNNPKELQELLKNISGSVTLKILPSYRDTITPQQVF
The following applies: plain residues with an end cap or a label only (N-terminal biotin on a linker: ado-ado).

The target in assay [26] is GIPC2, Q8TF65.
Assay [27] has as its target MAGI1_2, Q96QZ7.
Assay [28] concerns the target T12, PDZD7_3, Q9H5P4.
T12 sequence (Q9H5P4 857-944, limits assumed, looked up): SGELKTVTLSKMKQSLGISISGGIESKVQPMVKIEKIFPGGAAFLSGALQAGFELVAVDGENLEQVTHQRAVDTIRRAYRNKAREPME
To be noted: plain residues with an end cap or a label only (N-terminal biotin on a linker: ado-ado).

The target of assay [29] is T13, SYNJ2BP, P57105.
T13 sequence (P57105 8-110, limits assumed, looked up): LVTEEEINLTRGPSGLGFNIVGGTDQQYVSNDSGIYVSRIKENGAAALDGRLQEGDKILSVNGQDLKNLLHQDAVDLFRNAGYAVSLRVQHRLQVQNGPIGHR

Assay [30] deals with MAST1, Q9Y2H9.
Assay [31] concerns the target PTPN3, P26045. The following applies: plain residues with an end cap or a label only (N-terminal biotin on a linker: ado-ado).
The target of assay [32] is T14, LIN7C, Q9NUP9.
T14 sequence (Q9NUP9 88-185, limits assumed, looked up): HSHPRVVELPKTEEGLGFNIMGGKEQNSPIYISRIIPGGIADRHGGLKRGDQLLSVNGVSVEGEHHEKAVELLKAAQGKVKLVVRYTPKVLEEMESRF
To be noted: plain residues with an end cap or a label only (N-terminal biotin on a linker: ado-ado).

The target in assay [33] is GRASP, Q7Z6J2. The following applies: plain residues with an end cap or a label only (N-terminal biotin on a linker: ahx).
Assay [34] concerns the target ARHGEF12, Q9NZN5-2. The following applies: plain residues with an end cap or a label only (N-terminal biotin on a linker: ahx).
Assay [35] concerns the target DLG1_2, Q12959. The following applies: plain residues with an end cap or a label only (N-terminal biotin on a linker: ahx).
The target in assay [36] is MAGI2_5, Q86UL8. The following applies: plain residues with an end cap or a label only (N-terminal biotin on a linker: ahx).
Assay [37] addresses Inadl_10, Q8NI35. The following applies: plain residues with an end cap or a label only (N-terminal biotin on a linker: ahx).
Assay [38] concerns the target MAGI2_6, Q86UL8. The following applies: plain residues with an end cap or a label only (N-terminal biotin on a linker: ahx).
The target in assay [39] is NOS1, P29475. To be noted: plain residues with an end cap or a label only (N-terminal biotin on a linker: ahx).
The target in assay [40] is IL16_1, Q14005. To be noted: plain residues with an end cap or a label only (N-terminal biotin on a linker: ahx).
The target in assay [41] is T15, ARHGEF11, O15085.
T15 sequence (O15085 42-136, limits assumed, looked up): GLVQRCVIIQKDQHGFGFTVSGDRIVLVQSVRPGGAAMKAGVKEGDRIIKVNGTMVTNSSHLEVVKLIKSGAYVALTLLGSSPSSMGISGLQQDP
The following applies: plain residues with an end cap or a label only (N-terminal biotin on a linker: ahx).

In assay [42] the target is T16, APBA1_2, Q02410.
T16 sequence (Q02410 742-832, limits assumed, looked up): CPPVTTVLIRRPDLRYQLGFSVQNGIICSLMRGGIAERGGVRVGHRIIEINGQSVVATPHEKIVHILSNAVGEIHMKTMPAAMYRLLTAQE
The following applies: plain residues with an end cap or a label only (N-terminal biotin on a linker: ahx).

[43] abbreviates: plain residues with an end cap or a label only (N-terminal biotin on a linker: ado-ado).
Where [44] appears, read: plain residues with an end cap or a label only (N-terminal biotin on a linker: ahx).

What is called pKd is the negative decadic logarithm of the Kd, by convention in mol/L.

NHERF4_1, Q86UT5-2, sequence (Q86UT5 other isoform, or with tags, fused parts or gaps): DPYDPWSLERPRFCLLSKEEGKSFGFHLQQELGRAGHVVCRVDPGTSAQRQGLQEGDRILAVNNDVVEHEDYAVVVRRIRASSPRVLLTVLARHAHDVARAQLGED
MAST1, Q9Y2H9, sequence (Q9Y2H9 962-1065): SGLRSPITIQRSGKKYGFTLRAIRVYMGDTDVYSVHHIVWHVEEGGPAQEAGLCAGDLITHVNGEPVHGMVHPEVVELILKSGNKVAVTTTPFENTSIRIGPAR
GRID2IP_2, A4D2P6, sequence (A4D2P6 272-370): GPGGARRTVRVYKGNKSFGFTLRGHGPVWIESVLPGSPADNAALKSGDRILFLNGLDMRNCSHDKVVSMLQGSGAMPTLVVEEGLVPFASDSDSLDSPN
HTRA1, Q92743, sequence (Q92743 360-477): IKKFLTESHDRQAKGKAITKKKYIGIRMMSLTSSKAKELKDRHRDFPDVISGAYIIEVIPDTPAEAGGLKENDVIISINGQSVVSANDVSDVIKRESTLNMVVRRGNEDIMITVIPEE
LNX1_1, Q8TBB1, sequence (Q8TBB1 261-371): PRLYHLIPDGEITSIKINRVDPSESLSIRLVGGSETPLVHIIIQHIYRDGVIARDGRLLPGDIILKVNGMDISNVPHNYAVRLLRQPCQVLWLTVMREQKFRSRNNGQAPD
GIPC2, Q8TF65, sequence (Q8TF65 112-203): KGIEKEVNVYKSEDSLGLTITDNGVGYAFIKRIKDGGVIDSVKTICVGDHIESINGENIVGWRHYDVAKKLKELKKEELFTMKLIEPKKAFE
MAGI1_2, Q96QZ7, sequence (Q96QZ7 456-580): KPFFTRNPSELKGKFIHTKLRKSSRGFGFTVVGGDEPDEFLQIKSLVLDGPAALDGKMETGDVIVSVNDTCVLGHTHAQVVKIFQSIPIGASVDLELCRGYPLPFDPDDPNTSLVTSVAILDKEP
APBA3_1, O96018, sequence (O96018 other isoform, or with tags, fused parts or gaps): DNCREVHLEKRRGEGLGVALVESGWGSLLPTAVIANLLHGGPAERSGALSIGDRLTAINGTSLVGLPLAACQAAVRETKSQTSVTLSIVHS
PTPN3, P26045, sequence (P26045 505-587): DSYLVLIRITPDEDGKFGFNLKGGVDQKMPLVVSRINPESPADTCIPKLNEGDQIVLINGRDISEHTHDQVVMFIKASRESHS
ARHGEF12, Q9NZN5-2, sequence (Q9NZN5 other isoform, or with tags, fused parts or gaps): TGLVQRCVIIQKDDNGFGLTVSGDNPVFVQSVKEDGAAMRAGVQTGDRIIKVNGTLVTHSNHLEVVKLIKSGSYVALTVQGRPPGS
DLG1_3, Q12959, sequence (Q12959 457-571): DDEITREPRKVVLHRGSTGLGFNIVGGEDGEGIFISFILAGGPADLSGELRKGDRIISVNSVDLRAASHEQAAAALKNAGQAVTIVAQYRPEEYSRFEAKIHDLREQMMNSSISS
TJP2_1, Q9UDY2, sequence (Q9UDY2 24-128): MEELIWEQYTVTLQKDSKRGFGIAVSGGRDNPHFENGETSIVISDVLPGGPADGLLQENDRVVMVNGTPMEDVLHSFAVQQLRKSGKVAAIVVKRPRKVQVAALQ
IL16_1, Q14005, sequence (Q14005 210-306): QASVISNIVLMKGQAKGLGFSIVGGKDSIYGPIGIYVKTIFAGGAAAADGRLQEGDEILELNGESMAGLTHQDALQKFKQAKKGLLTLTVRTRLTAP
DLG4_2, P78352, sequence (P78352 155-259): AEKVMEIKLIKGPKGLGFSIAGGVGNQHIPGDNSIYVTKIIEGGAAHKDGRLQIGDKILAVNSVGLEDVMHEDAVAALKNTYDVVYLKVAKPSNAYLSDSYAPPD
Inadl_10, Q8NI35, sequence (Q8NI35 1673-1763): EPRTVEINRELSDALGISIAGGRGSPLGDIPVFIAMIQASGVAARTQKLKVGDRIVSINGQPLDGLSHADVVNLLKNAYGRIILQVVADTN
TJP1_3, Q07157, sequence (Q07157 416-512): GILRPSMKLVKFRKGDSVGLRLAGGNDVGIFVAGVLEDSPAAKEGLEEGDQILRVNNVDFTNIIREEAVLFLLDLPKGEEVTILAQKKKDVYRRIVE
FRMPD2_1, Q68DX3, sequence (Q68DX3 770-861): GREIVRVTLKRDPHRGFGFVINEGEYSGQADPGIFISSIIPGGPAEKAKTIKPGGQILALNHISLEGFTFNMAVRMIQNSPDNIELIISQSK
MAGI2_5, Q86UL8, sequence (Q86UL8 915-1017): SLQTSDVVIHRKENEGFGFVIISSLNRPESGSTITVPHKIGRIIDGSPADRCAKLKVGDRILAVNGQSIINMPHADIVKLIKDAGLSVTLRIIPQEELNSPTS
IL16_3, Q14005, sequence (Q14005 1107-1207): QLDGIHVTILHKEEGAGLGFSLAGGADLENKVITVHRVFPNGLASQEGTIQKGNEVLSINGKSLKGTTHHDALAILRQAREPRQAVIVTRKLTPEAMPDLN
MAGI2_6, Q86UL8, sequence (Q86UL8 1141-1229): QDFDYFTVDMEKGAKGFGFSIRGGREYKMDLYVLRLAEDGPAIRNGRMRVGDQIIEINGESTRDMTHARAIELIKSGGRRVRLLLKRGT
NOS1, P29475, sequence (P29475 9-101): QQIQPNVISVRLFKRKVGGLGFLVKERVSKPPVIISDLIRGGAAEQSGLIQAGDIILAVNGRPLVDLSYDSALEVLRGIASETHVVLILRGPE
DLG1_2, Q12959, sequence (Q12959 314-412): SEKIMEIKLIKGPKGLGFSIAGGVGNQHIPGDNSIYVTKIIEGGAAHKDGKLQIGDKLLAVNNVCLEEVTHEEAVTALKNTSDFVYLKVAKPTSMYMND
GRASP, Q7Z6J2, sequence (Q7Z6J2 96-193): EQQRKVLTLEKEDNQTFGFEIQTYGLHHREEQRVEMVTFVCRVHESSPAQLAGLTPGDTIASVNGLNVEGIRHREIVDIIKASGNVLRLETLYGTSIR

For the molecule EYRKDNKVAA [LSM14A, Q8ND56], the pKd came out at 3.53 in assay [1]; 3.64 in assay [2]; 3.57 in assay [3]; 3.61 in assay [4]; 3.54 in assay [5] (setting [43]); 3.6 in assay [6]. The pKd came out at 3.52 in assay [7]; 3.83 in [8]; 3.82 in assay [9] (setting [43]); 3.67 in [10]; 3.51 in assay [11]; 3.68 in assay [12]. Also, the pKd in assay [13] came out at 3.88; in assay [14] it was 3.68; in assay [15] it was 3.71; in [16], 3.68; in assay [17] (setting [43]), 3.67; in assay [18], 3.51. Besides, in assay [19], the pKd worked out at 3.55.
Turning to RRSQSPSANC [a stretch of P69709, P69709], the pKd entry in assay [20] is recorded as “below the threshold”.
Turning to KSTTRSSSSC [NDE1, Q9NXR1], the pKd was 3.75 in [21]; 3.85 in assay [22] (setting [43]); 3.85 in [4]; 3.74 in assay [23]; 3.64 in assay [8]; 3.59 in assay [24] (setting [43]). The pKd came out at 3.6 in assay [25]; 3.64 in assay [26] (setting [43]); 3.71 in assay [27] (setting [43]); 3.73 in assay [28]; 3.76 in assay [29] (setting [43]); 3.58 in assay [13]. Moreover, the pKd in [30] (setting [43]) came out at 3.61; in [31] it was 3.52; in [32] it was 3.88.
On to LCKSHAFSHV [PDLIM7, Q9NR12], for which the pKd in [33] came to 3.65; in assay [34], 3.55; in [22] (setting [44]), 3.48; in assay [35], 3.48; in [5] (setting [44]) it was 3.56; in assay [36] it was 3.86. In addition, the pKd in assay [37] amounted to 3.52; in [24] (setting [44]) it was 3.62; in assay [9] (setting [44]), 3.51; in assay [26] (setting [44]), 3.67; in assay [27] (setting [44]), 3.9; in assay [38] it was 3.61. In addition, the pKd in assay [39] stood at 3.48; in [29] (setting [44]), 3.7; in assay [30] (setting [44]) it was 3.75; in assay [40] it was 3.51; in [41], 3.48; in assay [42], 3.83. In assay [17] (setting [44]), this molecule gave a pKd of 3.68.
